Assays:
Experiment in all cases: holdup assay
Set-up in all cases: key: below the threshold = too weak to quantify, mostly under pKd 3.1 to 4
Conditions in all cases: plain residues with an end cap or a label only (N-terminal biotin on a linker: ttds)
DLG2_1, Q15700 = target: DLG2_1, Q15700
DLG5_2, Q8TDM6 = target: DLG5_2, Q8TDM6
DVL1, O14640 = target: T1, DVL1, O14640
T1 sequence (O14640 246-333, limits assumed, looked up): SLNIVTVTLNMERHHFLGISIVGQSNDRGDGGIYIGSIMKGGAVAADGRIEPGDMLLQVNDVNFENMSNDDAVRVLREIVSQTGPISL

GIPC1, O14908 = target: T2, GIPC1, O14908
T2 sequence (O14908 128-223, limits assumed, looked up): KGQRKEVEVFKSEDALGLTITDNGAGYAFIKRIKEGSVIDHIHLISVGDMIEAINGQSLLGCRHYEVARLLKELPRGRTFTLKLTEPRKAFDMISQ

GRIP1_1, Q9Y3R0 = target: T3, GRIP1_1, Q9Y3R0
T3 sequence (Q9Y3R0 48-146, limits assumed, looked up): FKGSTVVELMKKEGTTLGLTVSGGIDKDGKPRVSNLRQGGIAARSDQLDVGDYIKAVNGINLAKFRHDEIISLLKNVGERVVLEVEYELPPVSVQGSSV

IL16_2, Q14005 = target: IL16_2, Q14005
Inadl_7, Q8NI35 = target: Inadl_7, Q8NI35
LNX2_4, Q8N448 = target: T4, LNX2_4, Q8N448
T4 sequence (Q8N448 595-690, limits assumed, looked up): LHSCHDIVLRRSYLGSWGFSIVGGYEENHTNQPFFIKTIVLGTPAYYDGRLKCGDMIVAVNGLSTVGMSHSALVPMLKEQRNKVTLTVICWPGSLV

MAGI1_5, Q96QZ7 = target: MAGI1_5, Q96QZ7
MAGI3_5, Q5TCQ9 = target: MAGI3_5, Q5TCQ9
MLLT4, P55196 = target: T5, MLLT4, P55196
T5 sequence (P55196 1002-1103, limits assumed, looked up): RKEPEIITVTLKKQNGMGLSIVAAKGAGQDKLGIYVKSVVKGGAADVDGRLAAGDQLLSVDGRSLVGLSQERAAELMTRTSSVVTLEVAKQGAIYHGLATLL

NHERF3_2, Q5T2W1 = target: T6, NHERF3_2, Q5T2W1
T6 sequence (Q5T2W1 129-225, limits assumed, looked up): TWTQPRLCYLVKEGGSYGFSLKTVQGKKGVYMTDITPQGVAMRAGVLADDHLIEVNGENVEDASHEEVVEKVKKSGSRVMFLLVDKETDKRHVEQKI

PARD3B_2, Q8TEW8 = target: PARD3B_2, Q8TEW8
PARD6B, Q9BYG5 = target: T7, PARD6B, Q9BYG5
T7 sequence (Q9BYG5 152-260, limits assumed, looked up): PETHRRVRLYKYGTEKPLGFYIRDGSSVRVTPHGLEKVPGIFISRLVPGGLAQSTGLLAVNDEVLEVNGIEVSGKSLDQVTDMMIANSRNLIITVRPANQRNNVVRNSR

PDZD2_3, O15018 = target: T8, PDZD2_3, O15018
T8 sequence (O15018 581-682, limits assumed, looked up): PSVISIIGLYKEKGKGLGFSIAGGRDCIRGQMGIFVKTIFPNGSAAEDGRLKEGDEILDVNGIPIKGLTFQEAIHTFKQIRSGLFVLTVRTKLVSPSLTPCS

PDZD8, Q8NEN9 = target: T9, PDZD8, Q8NEN9
T9 sequence (Q8NEN9 361-459, limits assumed, looked up): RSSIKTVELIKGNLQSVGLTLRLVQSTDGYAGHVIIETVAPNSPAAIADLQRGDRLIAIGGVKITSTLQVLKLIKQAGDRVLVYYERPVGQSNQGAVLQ

PTPN4, P29074 = target: T10, PTPN4, P29074
T10 sequence (P29074 512-599, limits assumed, looked up): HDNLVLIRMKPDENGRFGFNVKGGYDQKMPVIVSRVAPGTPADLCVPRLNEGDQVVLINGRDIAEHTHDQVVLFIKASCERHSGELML

SHANK2, Q9UPX8 = target: T11, SHANK2, Q9UPX8
T11 sequence (Q9UPX8 621-730, limits assumed, looked up): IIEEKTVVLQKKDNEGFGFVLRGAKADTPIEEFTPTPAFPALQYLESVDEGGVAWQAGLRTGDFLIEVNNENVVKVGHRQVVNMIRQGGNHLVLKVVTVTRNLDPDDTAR

SNTB2, Q13425 = target: T12, SNTB2, Q13425
T12 sequence (Q13425 110-208, limits assumed, looked up): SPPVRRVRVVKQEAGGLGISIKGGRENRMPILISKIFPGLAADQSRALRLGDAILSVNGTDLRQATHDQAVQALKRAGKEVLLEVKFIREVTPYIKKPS

SHROOM3, Q8TF72 = target: T13, SHROOM3, Q8TF72
T13 sequence (Q8TF72 20-120, limits assumed, looked up): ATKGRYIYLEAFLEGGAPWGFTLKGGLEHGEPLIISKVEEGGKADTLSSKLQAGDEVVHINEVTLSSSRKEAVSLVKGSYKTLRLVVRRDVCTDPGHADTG

MAGI1_4, Q96QZ7 = target: MAGI1_4, Q96QZ7
RIMS2, Q9UQ26 = target: RIMS2, Q9UQ26
USH1C_3, Q9Y6N9 = target: T14, USH1C_3, Q9Y6N9
T14 sequence (Q9Y6N9 447-547, limits assumed, looked up): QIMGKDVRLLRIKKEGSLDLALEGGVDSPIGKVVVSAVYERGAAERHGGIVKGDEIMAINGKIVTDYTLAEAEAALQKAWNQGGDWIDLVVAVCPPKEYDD

Sequence of Inadl_7, Q8NI35 (Q8NI35 1219-1332): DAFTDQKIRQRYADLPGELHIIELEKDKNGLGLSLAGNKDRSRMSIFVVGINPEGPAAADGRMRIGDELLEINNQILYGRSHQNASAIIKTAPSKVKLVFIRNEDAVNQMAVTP
Sequence of IL16_2, Q14005 (Q14005 350-450): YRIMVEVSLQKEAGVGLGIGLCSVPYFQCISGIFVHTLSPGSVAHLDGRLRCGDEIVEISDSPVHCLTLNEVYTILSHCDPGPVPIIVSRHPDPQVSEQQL
Sequence of DLG5_2, Q8TDM6 (Q8TDM6 714-800): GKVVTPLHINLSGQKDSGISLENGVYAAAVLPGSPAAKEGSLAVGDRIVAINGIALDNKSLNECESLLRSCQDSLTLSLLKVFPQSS
Sequence of MAGI1_4, Q96QZ7 (Q96QZ7 other isoform, or with tags, fused parts or gaps): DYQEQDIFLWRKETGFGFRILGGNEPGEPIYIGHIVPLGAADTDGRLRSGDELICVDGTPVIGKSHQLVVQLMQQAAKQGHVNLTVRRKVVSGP
Sequence of MAGI3_5, Q5TCQ9 (Q5TCQ9 847-941): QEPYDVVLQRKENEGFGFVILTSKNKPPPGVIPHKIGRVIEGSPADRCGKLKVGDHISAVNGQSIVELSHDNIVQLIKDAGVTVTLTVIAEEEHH
Sequence of RIMS2, Q9UQ26 (Q9UQ26 637-758): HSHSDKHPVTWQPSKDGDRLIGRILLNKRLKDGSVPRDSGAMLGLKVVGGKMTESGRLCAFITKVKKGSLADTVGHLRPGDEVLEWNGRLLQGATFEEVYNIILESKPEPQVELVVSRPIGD
Sequence of MAGI1_5, Q96QZ7 (Q96QZ7 986-1098): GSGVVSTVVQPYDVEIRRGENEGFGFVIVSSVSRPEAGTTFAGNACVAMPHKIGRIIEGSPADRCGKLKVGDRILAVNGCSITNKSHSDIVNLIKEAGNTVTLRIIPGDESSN
Sequence of PARD3B_2, Q8TEW8 (Q8TEW8 376-471): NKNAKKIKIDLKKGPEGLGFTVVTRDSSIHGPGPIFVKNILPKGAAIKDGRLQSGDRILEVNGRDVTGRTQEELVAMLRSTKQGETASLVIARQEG

Binder	pKd (DLG2_1, Q15700)	pKd (DLG5_2, Q8TDM6)	pKd (DVL1, O14640)	pKd (GIPC1, O14908)	pKd (GRIP1_1, Q9Y3R0)	pKd (IL16_2, Q14005)	pKd (Inadl_7, Q8NI35)	pKd (LNX2_4, Q8N448)	pKd (MAGI1_5, Q96QZ7)	pKd (MAGI3_5, Q5TCQ9)	pKd (MLLT4, P55196)	pKd (NHERF3_2, Q5T2W1)	pKd (PARD3B_2, Q8TEW8)	pKd (PARD6B, Q9BYG5)	pKd (PDZD2_3, O15018)	pKd (PDZD8, Q8NEN9)	pKd (PTPN4, P29074)	pKd (SHANK2, Q9UPX8)	pKd (SNTB2, Q13425)	pKd (SHROOM3, Q8TF72)	further results
DEDQHTQITKV [PTEN, P60484]	below the threshold	below the threshold	below the threshold	below the threshold	below the threshold	below the threshold	3.65	below the threshold	4.53	below the threshold	below the threshold	below the threshold	below the threshold	4.25	below the threshold	below the threshold	below the threshold	below the threshold	below the threshold		
TGDTLEKFVEGL [CBP, Q92793]	below the threshold	below the threshold	below the threshold	below the threshold	below the threshold	below the threshold	below the threshold	below the threshold	4.17	below the threshold	below the threshold	below the threshold	3.9	4.58	below the threshold	below the threshold	below the threshold	below the threshold	below the threshold	below the threshold	
RRVRKLPSTTL [RPS6KA1, Q15418]	3.83	below the threshold	below the threshold	below the threshold	below the threshold	below the threshold	below the threshold	below the threshold	below the threshold	below the threshold	below the threshold	below the threshold	below the threshold	below the threshold	below the threshold	below the threshold	below the threshold			below the threshold	pKd (MAGI1_4, Q96QZ7): below the threshold; pKd (RIMS2, Q9UQ26): below the threshold; pKd (USH1C_3, Q9Y6N9): below the threshold
CLDTSRETDL [KCNA5, P22460]	below the threshold	below the threshold	below the threshold	below the threshold	below the threshold	below the threshold	below the threshold	below the threshold	below the threshold	below the threshold	below the threshold	below the threshold	below the threshold	below the threshold	below the threshold	below the threshold	4.07	below the threshold	4.91	below the threshold	pKd (MAGI1_4, Q96QZ7): below the threshold; pKd (RIMS2, Q9UQ26): below the threshold; pKd (USH1C_3, Q9Y6N9): below the threshold
SEKHFRETEV [HTLV1-TAX1, P03409]	5.16	5.06	below the threshold	4.86	below the threshold	below the threshold	below the threshold	below the threshold	5.22	4.86	4.08	below the threshold	3.97	below the threshold	below the threshold	below the threshold	4.77	below the threshold		below the threshold	pKd (MAGI1_4, Q96QZ7): 4.28; pKd (RIMS2, Q9UQ26): below the threshold; pKd (USH1C_3, Q9Y6N9): below the threshold
QPGTPTRTAV [MAP2K2, P36507]	below the threshold	below the threshold	below the threshold	below the threshold	below the threshold	below the threshold	below the threshold	below the threshold	below the threshold	below the threshold	below the threshold	below the threshold	below the threshold	below the threshold	below the threshold	below the threshold	below the threshold	below the threshold	below the threshold	below the threshold	pKd (MAGI1_4, Q96QZ7): below the threshold; pKd (RIMS2, Q9UQ26): below the threshold; pKd (USH1C_3, Q9Y6N9): below the threshold

— article PMC9482650, “Quantitative fragmentomics allow affinity mapping of interactomes” (Nature Communications, 2022)
